The values below come from PMC6457126 (Proteins, 2018).

Assay [1] has as its target histone H4K5ac (Homo sapiens) (UniProt P62805). In words: ITC. Conditions: cited from earlier work.
The target of assay [2] is T1, ATAD2 CO C1057A/C1079A/C1101A bromodomain (triple cysteine mutant) (human, UniProt Q6PL18 981-1108, C1057A | C1079A | C1101A).
T1 sequence: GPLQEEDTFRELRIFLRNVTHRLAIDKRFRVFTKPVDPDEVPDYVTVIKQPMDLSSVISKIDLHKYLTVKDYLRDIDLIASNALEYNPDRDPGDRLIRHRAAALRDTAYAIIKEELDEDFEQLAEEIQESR
In words: ITC. Background: ITC needs no label: the signal is the heat of the interaction.

No end group written: not given here.

Broadly, the Kd is the equilibrium constant for the complex coming apart. Regarding ATAD2 bromodomain (from UniProt Q6PL18), the Kd in assay [1] was 22 µM.

B1: histone H4K5ac peptide (residues 1-10) (peptide)
peptide: SGRGK(Ac)GGKGL
In general, stoichiometry N refers to the number of molecules, sites or subunits per partner or assembly. On to B1, for which, in assay [2], the Kd came to 113 µM, the dH was -4.2 kcal/mol and the “stoichiometry N” value was 0.84.
